According to US20180016348A1:

Tests used:
Assay in all cases: cell-based or functional assay
[1] = molecular target: neuraminidase (NA) of H1N1 A/Brisbane/59/2007 (influenza A virus H1N1 A/Brisbane/59/2007)
[2] = molecular target: neuraminidase (NA) of H1N1 A/California/07/2009 (influenza A virus H1N1 A/California/07/2009)
[3] = molecular target: neuraminidase (NA) of H5N1 A/Vietnam/1194/2004 (NIBRG-14) (influenza A virus H5N1 A/Vietnam/1194/2004 (NIBRG-14))
[4] = molecular target: neuraminidase (NA) of H3N2 A/Perth/16/2009 (influenza A virus H3N2 A/Perth/16/2009)

B1: CR12042 (antibody, V domains shown)
VH: EVQLVESGAEVRKPGSSVKVSCTASGDTFSSYTITWVRQAPGQGLEWMGEIIPIFGTANYAQKFQGRVTLTADESTTTAYMDLSSLRSEDTAVYYCARGPDNHSDRYFYYGMDVWGQGTTVTVSS
VL: EIVLTQSPLSLPVTPGEPASISCRSSQSLLHSTGNNYLDWYLQKPGQSPQLLIYLGSNRASGVPDRFSGSGSGTDFTLKISRVEAEDVGVYYCMQALQTPRTFGQGTKVDIK
- EC50 of neuraminidase inhibition (NA-XTD assay, whole virus) [1]: 0.11 µg/mL
- IC50 of virus neutralization (VNA on MDCK cells) [2]: 0.26 µg/mL
- IC50 of virus neutralization (VNA on MDCK cells) [3]: 5.45 µg/mL
- EC50 of neuraminidase inhibition (NA-XTD assay, whole virus) [4]: 5.01 µg/mL
- IC50 of virus neutralization (VNA on MDCK cells; one experiment) [4]: > 100 µg/mL
